Molecular target: tau 2N4R wild type (tau-441) (human, UniProt P10636-8 1-441)
Test: EMSA

B1: 24-bp duplex (dsDNA)
DNA 1: TCGACACGGAAATGTTGAATACTA
DNA 2: TAGTATTCAACATTTCCGTGTCGA
binding result: binds

From publication doi:10.1101/2024.09.24.614852
